Assay results from US20250161358A1 (UTC THERAPEUTICS SHANGHAI, published 2025).

Assays:
[1] = target: T1, CD7-Fc recombinant protein (human, UniProt P09564 26-180); assay: flow cytometry, CAR-T cells stained with CD7-Fc protein
T1 construct: also called CD7-Fc protein; human CD7-Fc
T1 sequence (looked up): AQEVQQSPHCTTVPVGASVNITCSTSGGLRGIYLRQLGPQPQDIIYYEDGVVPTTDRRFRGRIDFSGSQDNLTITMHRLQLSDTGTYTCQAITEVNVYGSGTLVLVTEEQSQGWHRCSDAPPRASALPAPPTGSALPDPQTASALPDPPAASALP

[2] = target: T1, CD7-Fc recombinant protein; assay: flow cytometry, CAR-T cells stained with CD7-Fc protein (FIG. 4)

B1: anti-CD7 scFv-H6 antibody (scFv, V domains shown)
VH: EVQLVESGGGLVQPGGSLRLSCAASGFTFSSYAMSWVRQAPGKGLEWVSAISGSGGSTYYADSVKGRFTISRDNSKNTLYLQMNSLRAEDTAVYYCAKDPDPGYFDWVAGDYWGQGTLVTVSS
VL: QSALTQPPSASGSPGQSVTISCTGTSSDVGGYNYVSWYQQHPGKAPKLMIYEVRKRPSGVPDRFSGSKSGNTASLTVSGLQADDEADYYCSSYAGSNNLGFGGGTKLTVL
notes: Fully human scFv from the phage library
- binding result [1]: binds

B2: anti-CD7 scFv-H18 antibody (scFv, V domains shown)
VH: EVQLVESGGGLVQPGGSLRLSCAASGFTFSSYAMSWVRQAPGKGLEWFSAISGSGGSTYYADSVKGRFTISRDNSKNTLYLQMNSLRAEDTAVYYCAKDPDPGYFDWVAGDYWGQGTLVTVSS
VL: QSALTQPPSASGSPGQSVTISCTGTSSDVGGYTYVSWYQQHPGKAPKLMIYEVSKRPSGVPDRFSGSKSGNTASLTVSGLQAEDEADYYCSSYAGSNNVVFGGGTELTVL
notes: as for B1
- binding result [2]: binds

B3: anti-CD7 scFv-H15 antibody (scFv, V domains shown)
VH: EVQLVQSGAEVKKPGASVKVSCKVSGYTLTELSMHWVRQAPGKGLEWMGGFDPEDGETIYAQKFQGRVTMTEDTSTDTAYMELSSLRSEDTAVYYCATERASGSYEYYFDYWGQGTLVTVSS
VL: AIQLTQSPSSVSASVGDRVTITCRASQGISSWLAWYQQKPGKAPKLLIYAASSLQSGVPSRFSGSGSGTDFTLTISSLQPEDFATYYCQQANSFPYTFGQGTKVEIK
notes: as for B1
- binding result [2]: binds

B4: anti-CD7 scFv-H4 antibody (scFv, V domains shown)
VH: QVQLVQSGGGLVQPGGSLRLSCAASGFTFSTYWMSWVRQAPGKGLEWVANINQDGTEKYYVDSVKGRFTISRDNAKNSLYLQMNSLRAEDTAVYYCAREPGIALDYWGQGTLVTVSS
VL: QSVVTQPPSVSAAPGQKVTISCSGSSSNIGNNYVSWYQQLPGTAPKLLIYDNNKRPSGIPDRFSGSKSGTSATLGITGLQTGDEADYYCGTWDSSLSAGDWVFGGGTKLTVL
notes: as for B1
- binding result [1]: binds

B5: anti-CD7 scFv-H10 antibody (scFv, V domains shown)
VH: QLQLQESGGGLVQPGGSLRLSCAASGFTFSSYAMSWVRQAPGKGLEWVSAISGSGGSTYYADSVKGRFTISRDNSKNTLYLQMNSLRAEDTAVYYCAKGYSGYPAVLDYWGQGTLVTVSS
VL: QSALTQPASVSGSPGQSITISCTGTSSDVGGSKYVSWYQQHPGKAPKLMIYDVSYRPSGVSDRFSGSKSGNTASLTISGLQAEDEADYYCSSYTSNSNLPLFGGGTKVTVL
notes: Fully human scFv from the phage library; also called anti-CD7 CAR-H10
- binding result [1]: binds

B6: anti-CD7 scFv-H5 antibody (scFv, V domains shown)
VH: QVQLVQSGAEVKKPGESLRISCKGSGYSFTSYWISWVRQMPGKGLEWMGRIDPSDSYTNYSPSFQGHVTISADKSISTAYLQWSSLKASDTAMYYCARHPVTNYYYYGMDVWGQGTTVTVSS
VL: DIRLTQSPSTVSASIGDRVTITCRASQGISNWLTWYQQKPGKAPKLLIYSASTLQSGVPSRFSGSGSGTDFTLTISSLQPEDFATYYCQQANNLRTLTFGGGTKVDIK
notes: as for B1
- binding result [1]: binds

B7: anti-CD7 scFv-H12 antibody (scFv, V domains shown)
VH: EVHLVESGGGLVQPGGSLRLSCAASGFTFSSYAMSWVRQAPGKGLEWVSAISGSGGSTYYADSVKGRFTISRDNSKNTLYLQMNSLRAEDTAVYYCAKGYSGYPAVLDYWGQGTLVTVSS
VL: QPVLTQPPSASGTPGQRVIISCSGSGSNIGSNTVTWYRQFPGAAPKTLIYNSKLRPSWVPDRFTASKSGTSASLAISGLQSEDEADYYCAAWDDSLNGVVFGGGTKLTVL
notes: as for B1
- binding result [1]: binds

B8: anti-CD7 scFv-H7 antibody (scFv, V domains shown)
VH: EVQLVESGGGLIQPGGSLRLSCAASGFTVSSNYMSWVRQAPGKGLEWVSVIYSGGSTYYADSVKGRFTISRDNSKNTLYLQMNSLRAEDTAVYYCATDYGELHDAFDIWGQGTTVTVSS
VL: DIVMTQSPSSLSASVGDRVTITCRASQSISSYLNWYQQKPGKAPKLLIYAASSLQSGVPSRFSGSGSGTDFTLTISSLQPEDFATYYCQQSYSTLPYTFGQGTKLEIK
notes: Fully human scFv from the phage library; also called anti-CD7 CAR-H7
- binding result [1]: binds

B9: anti-CD7 scFv-H9 antibody (scFv, V domains shown)
VH: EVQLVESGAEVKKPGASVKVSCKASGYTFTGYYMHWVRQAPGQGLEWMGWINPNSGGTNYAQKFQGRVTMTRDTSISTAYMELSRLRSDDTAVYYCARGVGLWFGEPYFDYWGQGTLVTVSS
VL: QSVLTQPPSASGAPGERVTISCSGSSSNIGSNYVYWYQQLPGTAPKLLIYNSNQRPSGVPDRFSGSKSGASASLAISGLRSEDEADYYCAAWDDSLSGPVFGGGTKVTVL
notes: Fully human scFv from the phage library; also called anti-CD7 CAR-H9
- binding result [1]: binds

B10: anti-CD7 scFv-H8 antibody (scFv, V domains shown)
VH: QVQLQESGAGLLKPSETLSLTCAVYGGSISGYYWSWIRQPPGKGLEWIGEINHSGSTNYNPSLKSRVTISVDTSKNQFSLKLSSVTAADTAVYYCARGGGSSGYYLDYWGQGALVTVSS
VL: QSVLTQPPSVSEAPRQRVTISCSGSSSNIGNNAVNWYQQLPGKAPKLLIYYDDLLPSGVSDRFSGSKSGTSASLTISGLQSEDGADYYCASWDDSLNGRVFGGGTKLTVL
notes: as for B1
- binding result [1]: binds

B11: anti-CD7 scFv-H13 antibody (scFv, V domains shown)
VH: QVQLVQSGAEVKKPGSSVKVSCKASGGTFSSYAISWVRQAPGQGLEWMGGIIPIFGTANYAQKFQGRVTITADESTSTAYMELSSLRSEDTAVYYCARDQGVVPAAEIPYYDFWSGPPFDPWGQGTLVTVSS
VL: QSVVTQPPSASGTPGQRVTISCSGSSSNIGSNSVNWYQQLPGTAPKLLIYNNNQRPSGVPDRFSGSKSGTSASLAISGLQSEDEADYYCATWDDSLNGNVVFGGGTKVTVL
notes: as for B1
- binding result [2]: binds
